Laboratory results reported in US20230406951A1 (Pfizer, published 2023).

T1: human TNFR2 (human, UniProt P20333 23-461)
T1 construct: expressed on the surface of CHO cells; also called HuTNFR2; TNFRSF1B
T1 sequence: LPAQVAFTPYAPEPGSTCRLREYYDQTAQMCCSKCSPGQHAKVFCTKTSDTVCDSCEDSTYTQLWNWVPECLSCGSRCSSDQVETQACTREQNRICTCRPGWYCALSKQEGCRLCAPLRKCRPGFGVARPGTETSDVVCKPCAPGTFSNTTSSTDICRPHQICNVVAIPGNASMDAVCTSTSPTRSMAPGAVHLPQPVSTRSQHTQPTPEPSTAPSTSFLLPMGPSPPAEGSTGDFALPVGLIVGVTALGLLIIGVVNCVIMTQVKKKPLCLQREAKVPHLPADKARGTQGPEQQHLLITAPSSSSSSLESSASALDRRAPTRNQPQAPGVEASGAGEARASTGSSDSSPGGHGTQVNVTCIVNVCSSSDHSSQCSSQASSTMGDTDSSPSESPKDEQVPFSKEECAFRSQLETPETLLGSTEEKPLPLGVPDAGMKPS


Biological target: T1, human TNFR2
Assay: binding to human TNFR2 CHO cells

binding result | Binder
no binding | IgG 1962 (antibody, name in Kabat numbering, V domains shown, IgG) VH: QVQLVQSGAEVKKPGASVKVSCKVSGFSFPSSGVDWVRQAPGQGLEWLGVTFQEGSTHYNQKFQGRVTITKDTSKSTVYMELSSLRSEDTAVYYCASGEHDEGFVYWGQGTLVTVSS VL: DIQLTQSPSFLSASVGDRVTITCKASQNVGTAVAWYQQKPGKAPKLLIYAASTLQSGVPSRFSGSGSGTEFTLTISSLQPEDFATYYCQQYSSYPLTFGGGTKVEIKR
no binding | IgG 1970 (antibody, name in Kabat numbering, V domains shown, IgG) VH: QVQLVQSGAEVKKPGASVKVSCKVSGFSFPSSGVDWVRQAPGQGLEWLGVTHGSGSTHYNQKFQGRVTITKDTSKSTVYMELSSLRSEDTAVYYCASGEHDEGFVYWGQGTLVTVSS VL: DIQLTQSPSFLSASVGDRVTITCKASQNVGTAVAWYQQKPGKAPKLLIYAASTLQSGVPSRFSGSGSGTEFTLTISSLQPEDFATYYCQQYSSYPLTFGGGTKVEIKR
no binding | IgG 1965 (antibody, name in Kabat numbering, V domains shown, IgG) VH: QVQLVQSGAEVKKPGASVKVSCKVSGFSFPSSGVDWVRQAPGQGLEWLGVTLGHGSTHYNQKFQGRVTITKDTSKSTVYMELSSLRSEDTAVYYCASGESTEGFVYWGQGTLVTVSS VL: DIQLTQSPSFLSASVGDRVTITCKASQNVGTAVAWYQQKPGKAPKLLIYAASTLQSGVPSRFSGSGSGTEFTLTISSLQPEDFATYYCQQYSSYPLTFGGGTKVEIKR
no binding | IgG 2022 (antibody, name in Kabat numbering, V domains shown, IgG) VH: QVQLVQSGAEVKKPGASVKVSCKVSGFSFPSSGVDWVRQAPGQGLEWLGVTFQEGSTHYNQKFQGRVTITKDTSKSTVYMELSSLRSEDTAVYYCASGEHDEGFVYWGQGTLVTVSS VL: DIQLTQSPSFLSASVGDRVTITCKASQNVGTAVAWYQQKPGKAPKLLIYAASTLQSGVPSRFSGSGSGTEFTLTISSLQPEDFATYYCLQKSSYPLTFGGGTKVEIKR
no binding | IgG 2026 (antibody, name in Kabat numbering, V domains shown, IgG) VH: QVQLVQSGAEVKKPGASVKVSCKVSGFSFPSSGVDWVRQAPGQGLEWLGVTLGHGSTHYNQKFQGRVTITKDTSKSTVYMELSSLRSEDTAVYYCASGEHDEGFVYWGQGTLVTVSS VL: DIQLTQSPSFLSASVGDRVTITCKASQNVGTAVAWYQQKPGKAPKLLIYAASTLQSGVPSRFSGSGSGTEFTLTISSLQPEDFATYYCLQKSSYPLTFGGGTKVEIKR
no binding | IgG 2019 (antibody, name in Kabat numbering, V domains shown, IgG) VH: QVQLVQSGAEVKKPGASVKVSCKVSGFSFPSSGVDWVRQAPGQGLEWLGVTRGEGSTHYNQKFQGRVTITKDTSKSTVYMELSSLRSEDTAVYYCASGERDEGFVYWGQGTLVTVSS VL: DIQLTQSPSFLSASVGDRVTITCKASQNVGTAVAWYQQKPGKAPKLLIYAASTLQSGVPSRFSGSGSGTEFTLTISSLQPEDFATYYCLQKSSYPLTFGGGTKVEIKR
no binding | IgG 2015 (antibody, name in Kabat numbering, V domains shown, IgG) VH: QVQLVQSGAEVKKPGASVKVSCKVSGFSFPSSGVDWVRQAPGQGLEWLGVTKGQGSTHYNQKFQGRVTITKDTSKSTVYMELSSLRSEDTAVYYCASGERDEGFVYWGQGTLVTVSS VL: DIQLTQSPSFLSASVGDRVTITCKASQNVGTAVAWYQQKPGKAPKLLIYAASTLQSGVPSRFSGSGSGTEFTLTISSLQPEDFATYYCLQKSSYPLTFGGGTKVEIKR
no binding | IgG 2021 (antibody, name in Kabat numbering, V domains shown, IgG) VH: QVQLVQSGAEVKKPGASVKVSCKVSGFSFPSSGVDWVRQAPGQGLEWLGVTFQEGSTHYNQKFQGRVTITKDTSKSTVYMELSSLRSEDTAVYYCASGESTEGFVYWGQGTLVTVSS VL: DIQLTQSPSFLSASVGDRVTITCKASQNVGTAVAWYQQKPGKAPKLLIYAASTLQSGVPSRFSGSGSGTEFTLTISSLQPEDFATYYCLQKSSYPLTFGGGTKVEIKR
no binding | IgG 2013 (antibody, name in Kabat numbering, V domains shown, IgG) VH: QVQLVQSGAEVKKPGASVKVSCKVSGFSFPSSGVDWVRQAPGQGLEWLGVTKGQGSTHYNQKFQGRVTITKDTSKSTVYMELSSLRSEDTAVYYCASGESTEGFVYWGQGTLVTVSS VL: DIQLTQSPSFLSASVGDRVTITCKASQNVGTAVAWYQQKPGKAPKLLIYAASTLQSGVPSRFSGSGSGTEFTLTISSLQPEDFATYYCLQKSSYPLTFGGGTKVEIKR
no binding | IgG 1972 (antibody, name in Kabat numbering, V domains shown, IgG) VH: QVQLVQSGAEVKKPGASVKVSCKVSGFSFPSSGVDWVRQAPGQGLEWLGVTHGSGSTHYNQKFQGRVTITKDTSKSTVYMELSSLRSEDTAVYYCASGEQDEGFVYWGQGTLVTVSS VL: DIQLTQSPSFLSASVGDRVTITCKASQNVGTAVAWYQQKPGKAPKLLIYAASTLQSGVPSRFSGSGSGTEFTLTISSLQPEDFATYYCQQYSSYPLTFGGGTKVEIKR
no binding | IgG 2016 (antibody, name in Kabat numbering, V domains shown, IgG) VH: QVQLVQSGAEVKKPGASVKVSCKVSGFSFPSSGVDWVRQAPGQGLEWLGVTKGQGSTHYNQKFQGRVTITKDTSKSTVYMELSSLRSEDTAVYYCASGEQDEGFVYWGQGTLVTVSS VL: DIQLTQSPSFLSASVGDRVTITCKASQNVGTAVAWYQQKPGKAPKLLIYAASTLQSGVPSRFSGSGSGTEFTLTISSLQPEDFATYYCLQKSSYPLTFGGGTKVEIKR
no binding | IgG 2017 (antibody, name in Kabat numbering, V domains shown, IgG) VH: QVQLVQSGAEVKKPGASVKVSCKVSGFSFPSSGVDWVRQAPGQGLEWLGVTRGEGSTHYNQKFQGRVTITKDTSKSTVYMELSSLRSEDTAVYYCASGESTEGFVYWGQGTLVTVSS VL: DIQLTQSPSFLSASVGDRVTITCKASQNVGTAVAWYQQKPGKAPKLLIYAASTLQSGVPSRFSGSGSGTEFTLTISSLQPEDFATYYCLQKSSYPLTFGGGTKVEIKR
no binding | IgG 2025 (antibody, name in Kabat numbering, V domains shown, IgG) VH: QVQLVQSGAEVKKPGASVKVSCKVSGFSFPSSGVDWVRQAPGQGLEWLGVTLGHGSTHYNQKFQGRVTITKDTSKSTVYMELSSLRSEDTAVYYCASGESTEGFVYWGQGTLVTVSS VL: DIQLTQSPSFLSASVGDRVTITCKASQNVGTAVAWYQQKPGKAPKLLIYAASTLQSGVPSRFSGSGSGTEFTLTISSLQPEDFATYYCLQKSSYPLTFGGGTKVEIKR
no binding | IgG 2030 (antibody, name in Kabat numbering, V domains shown, IgG) VH: QVQLVQSGAEVKKPGASVKVSCKVSGFSFPSSGVDWVRQAPGQGLEWLGVTHGSGSTHYNQKFQGRVTITKDTSKSTVYMELSSLRSEDTAVYYCASGEHDEGFVYWGQGTLVTVSS VL: DIQLTQSPSFLSASVGDRVTITCKASQNVGTAVAWYQQKPGKAPKLLIYAASTLQSGVPSRFSGSGSGTEFTLTISSLQPEDFATYYCLQKSSYPLTFGGGTKVEIKR
no binding | IgG 2023 (antibody, name in Kabat numbering, V domains shown, IgG) VH: QVQLVQSGAEVKKPGASVKVSCKVSGFSFPSSGVDWVRQAPGQGLEWLGVTFQEGSTHYNQKFQGRVTITKDTSKSTVYMELSSLRSEDTAVYYCASGERDEGFVYWGQGTLVTVSS VL: DIQLTQSPSFLSASVGDRVTITCKASQNVGTAVAWYQQKPGKAPKLLIYAASTLQSGVPSRFSGSGSGTEFTLTISSLQPEDFATYYCLQKSSYPLTFGGGTKVEIKR
no binding | IgG 1969 (antibody, name in Kabat numbering, V domains shown, IgG) VH: QVQLVQSGAEVKKPGASVKVSCKVSGFSFPSSGVDWVRQAPGQGLEWLGVTHGSGSTHYNQKFQGRVTITKDTSKSTVYMELSSLRSEDTAVYYCASGESTEGFVYWGQGTLVTVSS VL: DIQLTQSPSFLSASVGDRVTITCKASQNVGTAVAWYQQKPGKAPKLLIYAASTLQSGVPSRFSGSGSGTEFTLTISSLQPEDFATYYCQQYSSYPLTFGGGTKVEIKR
no binding | IgG 1963 (antibody, name in Kabat numbering, V domains shown, IgG) VH: QVQLVQSGAEVKKPGASVKVSCKVSGFSFPSSGVDWVRQAPGQGLEWLGVTFQEGSTHYNQKFQGRVTITKDTSKSTVYMELSSLRSEDTAVYYCASGERDEGFVYWGQGTLVTVSS VL: DIQLTQSPSFLSASVGDRVTITCKASQNVGTAVAWYQQKPGKAPKLLIYAASTLQSGVPSRFSGSGSGTEFTLTISSLQPEDFATYYCQQYSSYPLTFGGGTKVEIKR
no binding | IgG 1966 (antibody, name in Kabat numbering, V domains shown, IgG) VH: QVQLVQSGAEVKKPGASVKVSCKVSGFSFPSSGVDWVRQAPGQGLEWLGVTLGHGSTHYNQKFQGRVTITKDTSKSTVYMELSSLRSEDTAVYYCASGEHDEGFVYWGQGTLVTVSS VL: DIQLTQSPSFLSASVGDRVTITCKASQNVGTAVAWYQQKPGKAPKLLIYAASTLQSGVPSRFSGSGSGTEFTLTISSLQPEDFATYYCQQYSSYPLTFGGGTKVEIKR
no binding | IgG 1967 (antibody, name in Kabat numbering, V domains shown, IgG) VH: QVQLVQSGAEVKKPGASVKVSCKVSGFSFPSSGVDWVRQAPGQGLEWLGVTLGHGSTHYNQKFQGRVTITKDTSKSTVYMELSSLRSEDTAVYYCASGERDEGFVYWGQGTLVTVSS VL: DIQLTQSPSFLSASVGDRVTITCKASQNVGTAVAWYQQKPGKAPKLLIYAASTLQSGVPSRFSGSGSGTEFTLTISSLQPEDFATYYCQQYSSYPLTFGGGTKVEIKR
no binding | IgG 1971 (antibody, name in Kabat numbering, V domains shown, IgG) VH: QVQLVQSGAEVKKPGASVKVSCKVSGFSFPSSGVDWVRQAPGQGLEWLGVTHGSGSTHYNQKFQGRVTITKDTSKSTVYMELSSLRSEDTAVYYCASGERDEGFVYWGQGTLVTVSS VL: DIQLTQSPSFLSASVGDRVTITCKASQNVGTAVAWYQQKPGKAPKLLIYAASTLQSGVPSRFSGSGSGTEFTLTISSLQPEDFATYYCQQYSSYPLTFGGGTKVEIKR
